The labels stand for the following.
B1: 8DC3OK (CD3xCD38 bispecific antibody, IgG-L-scFv format, humanized VL5 and VH8) (bispecific antibody)
light: DIQLTQSPSSLSASVGDRVTITCKASEDIYNRLTWYQQKPGKAPKLLISGATSLETGVPSRFSGSGSGKDYTFTISSLQPEDFATYYCQQYWSNPYTFGQGTKLEIKRTVAAPSVFIFPPSDEQLKSGTASVVCLLNNFYPREAKVQWKVDNALQSGNSQESVTEQDSKDSTYSLSSTLTLSKADYEKHKVYACEVTHQGLSSPVTKSFNRGECGGGGSGGGGSGGGGSGGGGSQVQLVQSGGGVVQPGRSLRLSCKASGYTFTRYTMHWVRQAPGKCLEWIGYINPSRGYTNYNQKFKDRFTISRDNSKNTAFLQMDSLRPEDTGVYFCARYYDDHYSLDYWGQGTPVTVSSGGGGSGGGGSGGGGSGGGGSGGGGSGGGGSDIQMTQSPSSLSASVGDRVTITCSASSSVSYMNWYQQTPGKAPKRWIYDTSKLASGVPSRFSGSGSGTDYTFTISSLQPEDIATYYCQQWSSNPFTFGCGTKLQITR
heavy: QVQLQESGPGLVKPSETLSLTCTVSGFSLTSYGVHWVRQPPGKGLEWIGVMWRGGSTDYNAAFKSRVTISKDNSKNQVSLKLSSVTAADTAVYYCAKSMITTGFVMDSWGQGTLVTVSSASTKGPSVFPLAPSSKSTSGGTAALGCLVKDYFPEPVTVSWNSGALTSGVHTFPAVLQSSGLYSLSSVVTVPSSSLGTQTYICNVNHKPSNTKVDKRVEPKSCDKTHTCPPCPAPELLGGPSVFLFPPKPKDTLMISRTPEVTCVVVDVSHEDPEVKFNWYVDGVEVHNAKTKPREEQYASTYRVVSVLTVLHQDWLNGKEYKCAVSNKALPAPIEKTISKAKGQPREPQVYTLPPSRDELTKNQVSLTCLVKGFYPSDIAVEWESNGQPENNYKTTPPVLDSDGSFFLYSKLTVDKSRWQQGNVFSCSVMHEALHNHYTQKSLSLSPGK
notes: Light chain: anti-CD38 VL-CL-(G4S)4-huOKT3 VH-(G4S)6-huOKT3 VL
B2: 8DC1OK (CD3xCD38 bispecific antibody, IgG-L-scFv format, chimeric AT13/5 VL and VH) (bispecific antibody)
light: DIQLTQSPSSFSVSLGDRVTITCKASEDIYNRLTWYQQKPGNAPRLLISGATSLETGVPSRFSGSGSGKDYTLSITSLQTEDVATYYCQQYWSNPYTFGGGTKLEIRRTVAAPSVFIFPPSDEQLKSGTASVVCLLNNFYPREAKVQWKVDNALQSGNSQESVTEQDSKDSTYSLSSTLTLSKADYEKHKVYACEVTHQGLSSPVTKSFNRGECGGGGSGGGGSGGGGSGGGGSQVQLVQSGGGVVQPGRSLRLSCKASGYTFTRYTMHWVRQAPGKCLEWIGYINPSRGYTNYNQKFKDRFTISRDNSKNTAFLQMDSLRPEDTGVYFCARYYDDHYSLDYWGQGTPVTVSSGGGGSGGGGSGGGGSGGGGSGGGGSGGGGSDIQMTQSPSSLSASVGDRVTITCSASSSVSYMNWYQQTPGKAPKRWIYDTSKLASGVPSRFSGSGSGTDYTFTISSLQPEDIATYYCQQWSSNPFTFGCGTKLQITR
heavy: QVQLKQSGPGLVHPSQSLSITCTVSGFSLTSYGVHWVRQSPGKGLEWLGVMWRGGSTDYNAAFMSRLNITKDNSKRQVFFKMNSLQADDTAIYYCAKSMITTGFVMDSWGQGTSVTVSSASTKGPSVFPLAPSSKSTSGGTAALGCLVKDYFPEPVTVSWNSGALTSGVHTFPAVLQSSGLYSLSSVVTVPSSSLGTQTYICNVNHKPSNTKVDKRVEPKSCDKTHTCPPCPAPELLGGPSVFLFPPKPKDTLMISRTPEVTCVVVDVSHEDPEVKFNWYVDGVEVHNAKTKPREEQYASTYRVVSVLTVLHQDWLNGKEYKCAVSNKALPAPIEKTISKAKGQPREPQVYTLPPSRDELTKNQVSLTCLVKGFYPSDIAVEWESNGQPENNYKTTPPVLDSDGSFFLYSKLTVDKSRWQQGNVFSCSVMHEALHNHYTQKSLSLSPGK
notes: Light chain: anti-CD38 VL-CL-(G4S)4-huOKT3 VH-(G4S)6-huOKT3 VL; also called the chimeric antibody 8DC1OK
B3: Chimeric (chimeric AT13/5 anti-CD38 IgG) (antibody, V domains shown)
VH: QVQLKQSGPGLVHPSQSLSITCTVSGFSLTSYGVHWVRQSPGKGLEWLGVMWRGGSTDYNAAFMSRLNITKDNSKRQVFFKMNSLQADDTAIYYCAKSMITTGFVMDSWGQGTSVTVSS
VL: DIQLTQSPSSFSVSLGDRVTITCKASEDIYNRLTWYQQKPGNAPRLLISGATSLETGVPSRFSGSGSGKDYTLSITSLQTEDVATYYCQQYWSNPYTFGGGTKLEIR
notes: IgG format, captured on anti-human Fc; chimeric VL + chimeric VH (murine AT13/5 variable regions)
B4: L1H1 (antibody, V domains shown)
VH: QVQLQESGPGLVKPSETLSLTCTVSGFSLTSYGVHWIRQPPGKGLEWIGVMWRGGSTDYNPSLKSRVTISKDNSKRQFSLKLSSVTAADTAVYYCAKSMITTGFVMDSWGQGTLVTVSS
VL: DIQMTQSPSSLSASVGDRVTITCRASEDIYNRLTWYQQKPGKAPKLLLSGATSLETGVPSRFSGSGSGKDYTLTISSLQPEDFATYYCQQYWSNPYTFGGGTKVEIK
notes: Humanized AT13/5 IgG, VL1 + VH1
B5: L4H5 (antibody, V domains shown)
VH: B4 VH with K71V, N73T, R76N, L80F, V92I
VL: B4 VL with S49Y
notes: Humanized AT13/5 IgG, VL4 + VH5
B6: L2H3 (antibody, V domains shown)
VH: B4 VH with L20I, N73T, R76N, V85L
VL: B4 VL with T34A, K69T
notes: Humanized AT13/5 IgG, VL2 + VH3
B7: L1H5 (antibody, V domains shown)
VH: B4 VH with K71V, N73T, R76N, L80F, V92I
VL: B4 VL
notes: Humanized AT13/5 IgG, VL1 + VH5
B8: L3H6 (antibody, V domains shown)
VH: B4 VH with I48L, D58N, N73T, R76N
VL: B4 VL with K69T
notes: Humanized AT13/5 IgG, VL3 + VH6
B9: L4H4 (antibody, V domains shown)
VH: B4 VH with K71V, N73T, F78V
VL: B4 VL with S49Y
notes: Humanized AT13/5 IgG, VL4 + VH4
B10: L2H7 (antibody, V domains shown)
VH: B4 VH with Q5K, E6Q, D58N, V67L, K71V, N73T, R76N
VL: B4 VL with T34A, K69T
notes: Humanized AT13/5 IgG, VL2 + VH7
B11: L2H6 (antibody, V domains shown)
VH: B4 VH with I48L, D58N, N73T, R76N
VL: B4 VL with T34A, K69T
notes: Humanized AT13/5 IgG, VL2 + VH6
B12: L3H7 (antibody, V domains shown)
VH: B4 VH with Q5K, E6Q, D58N, V67L, K71V, N73T, R76N
VL: B4 VL with K69T
notes: Humanized AT13/5 IgG, VL3 + VH7
B13: L1H7 (antibody, V domains shown)
VH: B4 VH with Q5K, E6Q, D58N, V67L, K71V, N73T, R76N
VL: B4 VL
notes: Humanized AT13/5 IgG, VL1 + VH7
B14: L2H1 (antibody, V domains shown)
VH: B4 VH
VL: B4 VL with T34A, K69T
notes: Humanized AT13/5 IgG, VL2 + VH1
B15: L3H4 (antibody, V domains shown)
VH: B4 VH with K71V, N73T, F78V
VL: B4 VL with K69T
notes: Humanized AT13/5 IgG, VL3 + VH4
B16: L1H6 (antibody, V domains shown)
VH: B4 VH with I48L, D58N, N73T, R76N
VL: B4 VL
notes: Humanized AT13/5 IgG, VL1 + VH6
B17: L4H6 (antibody, V domains shown)
VH: B4 VH with I48L, D58N, N73T, R76N
VL: B4 VL with S49Y
notes: Humanized AT13/5 IgG, VL4 + VH6
B18: L3H3 (antibody, V domains shown)
VH: B4 VH with L20I, N73T, R76N, V85L
VL: B4 VL with K69T
notes: Humanized AT13/5 IgG, VL3 + VH3
B19: L2H2 (antibody, V domains shown)
VH: B4 VH with I37V, L82M
VL: B4 VL with T34A, K69T
notes: Humanized AT13/5 IgG, VL2 + VH2
B20: L1H4 (antibody, V domains shown)
VH: B4 VH with K71V, N73T, F78V
VL: B4 VL
notes: Humanized AT13/5 IgG, VL1 + VH4
B21: L4H7 (antibody, V domains shown)
VH: B4 VH with Q5K, E6Q, D58N, V67L, K71V, N73T, R76N
VL: B4 VL with S49Y
notes: Humanized AT13/5 IgG, VL4 + VH7
B22: L4H2 (antibody, V domains shown)
VH: B4 VH with I37V, L82M
VL: B4 VL with S49Y
notes: Humanized AT13/5 IgG, VL4 + VH2
B23: L1H3 (antibody, V domains shown)
VH: B4 VH with L20I, N73T, R76N, V85L
VL: B4 VL
notes: Humanized AT13/5 IgG, VL1 + VH3
B24: L4H3 (antibody, V domains shown)
VH: B4 VH with L20I, N73T, R76N, V85L
VL: B4 VL with S49Y
notes: Humanized AT13/5 IgG, VL4 + VH3
B25: L3H2 (antibody, V domains shown)
VH: B4 VH with I37V, L82M
VL: B4 VL with K69T
notes: Humanized AT13/5 IgG, VL3 + VH2
B26: L1H2 (antibody, V domains shown)
VH: B4 VH with I37V, L82M
VL: B4 VL
notes: Humanized AT13/5 IgG, VL1 + VH2
B27: L3H1 (antibody, V domains shown)
VH: B4 VH
VL: B4 VL with K69T
notes: Humanized AT13/5 IgG, VL3 + VH1
B28: L4H1 (antibody, V domains shown)
VH: B4 VH
VL: B4 VL with S49Y
notes: Humanized AT13/5 IgG, VL4 + VH1

The source of these data is US20230312742A1 (Y MABS THERAPEUTICS, published 2023).

A word on the EC50 (read off the curve): it is the concentration at which the effect is half-maximal. A lower EC50 (read off the curve) goes with greater potency. As usually defined, the EC50 is the concentration at which the effect is half-maximal. Higher therefore signals a need for much substance. For orientation: Kd means a measure of binding affinity in units of concentration. As a reminder, the koff is a measure of how fast the partners let go of each other. One may read the kon as a measure of how fast the partners come together.

Changes are numbered by the printed parent chain. Names and notes keep the numbering of the source.

In one assay the target is T1, CD38 on CD38(+) cancer cells (RPMI8226, Raji, Daudi) (UniProt P28907 1-300, limits assumed).
T1 construct: whole, on cells; Endogenous CD38 on tumour cell lines; also called CD38(+) tumor cells; CD38(+) Raji cells
Put plainly: flow cytometry on Daudi cells, goat anti-human IgG fluorochrome-conjugated secondary antibody. In general terms: In flow cytometry, cells or beads pass a laser one at a time.
B1: the “EC50 (read off the curve)” value is about 0.1 µg/mL.

For the next assay, the target named is T1, CD38 on CD38(+) cancer cells (RPMI8226, …). Put plainly: flow cytometry on RPMI8226 cells.
Regarding B2, the EC50 amounted to 0.076 µg/mL.

With B1, the EC50 was 0.167 µg/mL and the “fold weaker EC50 than the chimeric antibody 8DC1OK” value was about 2 fold.

In a further assay the target is T2, human CD38 antigen (recombinant human CD38 protein) (human, UniProt P28907 43-300, limits assumed). Put plainly: SPR, IgG captured on anti-human Fc, human CD38 in solution.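 Further: humanized IgG captured on an amine-coupled anti-human Fc HC30M chip, with human CD38 injected as a dilution series from 1000 nM downward.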 For orientation: Surface plasmon resonance follows binding to a sensor surface in real time, without labels.
B3: the Kd was found to be 2.8 nM.

B4: the Kd was determined as 870 nM.

In the case of B5, the Kd came out at 320 nM.

For B6, the equilibrium dissociation constant (Kd) came out at 830 nM.

Regarding B7, the Kd turned out to be 1800 nM.

Consider B8, for which the Kd turned out to be 1300 nM.

With B9, the Kd came out at 140 nM.

Consider B10, for which the dissociation constant (Kd) was 390 nM.

Take B11: the dissociation constant (Kd) turned out to be 1900 nM.

B12: the equilibrium dissociation constant (Kd) amounted to 100 nM.

B13: the dissociation constant Kd came out at 8500 nM.

For the molecule B14, the Kd was 950 nM.

B15: the Kd turned out to be 1200 nM.

With B16, the dissociation constant Kd stood at 31 nM.

Consider B17, for which the Kd was determined as 580 nM.

As for B18, the equilibrium dissociation constant (Kd) was 1200 nM.

As to B19, the dissociation constant Kd was 910 nM.

As to B20, the Kd worked out at 300 nM.

B21: the Kd turned out to be 870 nM.

With B22, the Kd turned out to be 250 nM.

Take B23: the Kd was determined as 810 nM.

On to B24, for which the Kd stood at 200 nM.

Regarding B25, the dissociation constant (Kd) was 460 nM.

Regarding B26, the Kd was 400 nM.

B27: the Kd is 650 nM.

Regarding B28, the Kd was found to be 100 nM.

The next assay addresses T2, human CD38 antigen (recombinant human …). Description: SPR, BsAb (1 µg/ml) captured on anti-human Fc chip, human CD38 in solution; average, N=6.
With B2, the Kd came out at 1.6 nM, the off-rate constant (koff) worked out at 0.00076 s⁻¹ and the on-rate (kon) amounted to 470000 M⁻¹ s⁻¹.

On to B1, for which the Kd stood at 8.8 nM, the off-rate constant (koff) stood at 0.0018 s⁻¹ and the on-rate (kon) was determined as 210000 M⁻¹ s⁻¹.
